# Test results published in paper PMC8204860.
# Target: TRAPPIII complex, P46944;P38334;Q03337;P36149;Q03784;Q03630;Q99394
# Experiment: in vivo anchor-away assay (colocalization of Trs85-mNeonGreen with mitochondrially anchored Rab, fluorescence microscopy)
# Details: parent: est. 0.55; read off a plot
row,other: Mander's Overlap Coefficient,Substance
1,0.54,"chimeric construct containing the NBD of Rab11/Ypt31 and the HVD of Rab1/Ypt1, mitochondrially anchored T181A; T182A; Q183A"
2,0.21,"chimeric construct containing the NBD of Rab11/Ypt31 and the HVD of Rab1/Ypt1, mitochondrially anchored L198A; T199A; N200A; T201A"
3,0.68,"chimeric construct containing the NBD of Rab11/Ypt31 and the HVD of Rab1/Ypt1, mitochondrially anchored D187A; K188A; N190A"
4,0.28,"chimeric construct containing the NBD of Rab11/Ypt31 and the HVD of Rab1/Ypt1, mitochondrially anchored K194A; Q196A; S197A"
5,0.58,"chimeric construct containing the NBD of Rab11/Ypt31 and the HVD of Rab1/Ypt1, mitochondrially anchored K184A; K185A; E186A"
6,0.3,"chimeric construct containing the NBD of Rab11/Ypt31 and the HVD of Rab1/Ypt1, mitochondrially anchored V191A; N192A; L193A"
